Experimental findings from article PMC3770614 are described below.

The assay concerns the target nucleosomes decorated with both H3KC4me3 and H3K9ac or H3K14ac. Description: pull-down; 130 pmol recombinant nucleosome (biotinylated 601 Widom DNA, weak TATA) on magnetic streptavidin beads, 500 µg HeLa nuclear extract, 2–3 hours at 4°C; 20 mM HEPES pH 7.5, 150 mM NaCl, 0.2 mM EDTA, 20% glycerol, 0.1% NP-40, 1 mM DTT; no competitor DNA; immunoblot of eluted proteins. (Immunoblotting shows a protein as a band on a membrane.)

As to “TFIID complex (from UniProt P21675 1-1893; Q6P1X5 1-1199; Q5VWG9 1-929; O00268 1-1085; Q15542 1-800; P49848 1-677; Q15545 1-349; Q7Z7C8 1-310; Q16594 1-264; Q12962 1-218; Q15544 1-211; Q16514 1-161; Q15543 1-124; P20226 1-339)”, the fold binding compared to H3KC4me3 alone was 1.2 to 1.4 fold.
